Test results as given in the DeepSol protein solubility set.

assay: soluble on expression in E. coli; label from the status in PepcDB or PDB records

**Q.** Which “soluble on expression in E. coli” value does the source give for “MGSDKIHHHHHHMITASIVTYHHHFKDIRKVIECILSSPVSILYIIDNSSNDRLRELAKISAKIKYIHSVNLGYGAGHNIAIRESIDIGATYHIVVNPDIYFEEGVIEKLIIYMNKYSEVGLVMPRVLYPNGELQYLCKLLPTPFDLLFRRFLPWRRYVEKKNEKYELRFTNYSREMEVPSLSGCFMFVRIAVLKKVGGFDERYFMYAEDLDLCRRIGKVSRTMYYPNVVVYHEYAKGSYKNRRLLRYHLSSVVKYFNKWGWVWDLDRKIINKRILDNLKNV” here?
**A.** not soluble

**Q.** With “MGSDKIHHHHHHMIVALFALLASGCGHSQRTLEFRGICVDDPQGENGLYNPGRGFRLETAVDVLHEKDTPTEELNELSAKYVADSVSLSQSYFYLTYLIGKELSEENFRTMQAYFDELQKQGKKAVLRFAYERDFMGRSPVGPTGEQILAHLDQLKPFLEKNKDLILVVQAGMIGAWGEWHSSVQGLENSEETKAAVLEKLLSVVPAERNVQVRLPEFKNLLKDKPELYKRLSFHDDFIVIRPDRWDADMHEGTPKFDQIVAESPYLVVDGELPWGFWSVGADPDSPSAGWIIDGMQAARRLFLQHYTSLSIIHNYKEQHPNNRFDENNPPEYSMVVWKKTMITEDSLLQHHMPVSDSYFRKKDGTKVKRNMFDYIRDHLGYRIELQSLQLPSKFVSGKENVLKLSLKNRGFATVFGEHPVYFVLIDDAGEVTEFPTDANPKNWQPFEPKDSAYTSLMHTVDVSLELPASVTAGTYKLGLWIPDGSDRLRYNPRYAIHCANGDTDWWISKDGKYGVNVLTAVEVE” as the sequence, how does the “soluble on expression in E. coli” value read?
**A.** not soluble

**Q.** For “MGSDKIHHHHHHMIVEMTGIHKSFSGNPVLKDVSFTLEKGEIHALMGENGAGKSTLMKILTGIYERDSGTVKIKGREVHYKHPKEAEADGLAVIHQELNILPELTVAENLFVGKERTYGKTGWIKSKEMNRLAEEKLAELGLKVKGTERAGNLSVGKQQLIEIAKALMTNADIIIMDEPTAALTDREIDTLFATVRELQKKGVTFVYISHRMEEIFSLCQRITVLRDGEYVGTKVIAETSFDEIVKMMVGRALGNRFPEHTLTPGDVKLEIKHLTRAGEFENVSLSVRAGEILGISGLMGAGRSELVETIFGYRKADSGEVWIDGKQAAIKGPDQAIAQGIGFVSEDRKSKGLIVDFSIRDNISLTNLSRISTSSWISSEKERSLYEELAKKLHVKASGPSQQAKSLSGGNQQKIVIAKWLGIEPKILILDEPTRGVDVGAKKEIYTIMNELAKQGVAIIMVSSELPEVIGLSTRVAVMFEGKLMHILERDELSEETIMHYATGGDKHVRQ”, which “soluble on expression in E. coli” value is on record?
**A.** not soluble

**Q.** For “MGSDKIHHHHHHMIVMDAETLKELIRDDFEVINANETVSKLFPMLEKLDRDKANAILVEEDGKIVGVVREKDLIRGSVLKNPHETKVKSLLVRTGKIDLNELDPYKVARRFVEDSTPFVIVQIDDKRVGVIYINDFLSALKDEFKDVKVREVMNPEVITVRRFDSAAKALSVMRTHGIDRVVVVDENNKVIGILTGKDVVDRVISPRKRARMGDSSGEKEKTLSIMVESIMSSPVVSVSRNDSVAEVIDLMVENRISSVVVTRDGLPDGIVIKKDILEYYLKKESRKEFNVQISTADITLDEFDREAILEDVEKLMRKFSDFLGESFLFIYIKRHKEHFRNLPLIHVRLKLASEKGNFMVSGESWGVEYAVHVALKKLEREILKEKELLEDKRMIKRFYEEVLEY”, which “soluble on expression in E. coli” value is on record?
**A.** not soluble

**Q.** Which “soluble on expression in E. coli” value does the source give for “MGSDKIHHHHHHMKASLEQSSLPCRRFGRTGLSMPVLSLGGMRFQQSWTDLEAEVITSESQQLLKDILERAVACGFHHVETARHYGSSERQLGWALRDVLDPQRLLQSKVPPREDPKVFEAELALSFERLGCERLDLVAIHGLNLSEHLEQTLRPGGCMDVLRRWQGDGRIGHVGFSTHGPTDLIVQAIETDAFDYVNLHWYFIYQDNDPALDAAARHDLGVFIISPTDKGGHLHSPSSQLLELCAPLHPIVFNDLFCLQDPRVHTISVGAARPSDLDRHLEAVDLLQSAAELLPPVQQRLVDAAQLALGEAWWTSWQRGLPPWQESPGEINLPILLWLHNLVEAWGMEGYAKARYGLLGSGSHWFPGANAEALDADVSETALREVLVNSPWCDQIPGLLRRLRNRLGGHPQQRLTSV” here?
**A.** not soluble

**Q.** Which “soluble on expression in E. coli” value does the source give for “MGSDKIHHHHHHMKAYAFGFPKIGEKREFKKALEDFWKGKITEEQFEEEMNKLRMYMVENYRKNVDVIPSNELSYYDFVLDTAVMVGAVPERFGEYRGLSTYFDMARGGKALEMTKFFNTNYHYLVPEIETEEFYLLENKPLEDYLFFKSKGIETAPWVIGPFTFLYLSKRNGEWIRRPNQMEKLLESLVSVYKEVFEKLVENGCKEILVNEPAFVCDLEKAHWDLILNVYRELSEFPLTVFTYYDSVSDYEACVSLPVKRLHFDFVSNEENLKNLEKHGFPEDKKLVAGVINGRQPWKVDLRKVASLVEKLGASAISNSCPLFHLPVTLELENNLPGGLKEKLAFAKEKLEELKMLKDFLEGKTFDLPNVSFEDFAVDLQAVERVRNLPEDSFRREKEYTERDRIQRERLNLPLFPTTTIGSFPQTPEVRKMRSKYRKGEISKEEYEAFIKEQIKKAIELQEEIGLDVLVHGEFERTDMVEFFAEKLNGIATTQNGWVLSYGSRCYRPPIIYGTVTRPEPMTLKEITYAQSLTEKPVKGMLTGPVTIMSWSYYREDIPEREIAYQIALAINEEVKDLEEAGIKIVQIDEPAFREKAPIKKSKWPEYFEWAINAFNLAANARPETQIHAHMCYSDFNEIIEYIHQLEFDVISIEASRSKGEIISAFENFKGWIKQIGVGVWDIHSPAVPSINEMREIVERVLRVLPKELIWINPDCGLKTRNWDEVIPSLRNMVALAKEMREKFES” here?
**A.** not soluble

**Q.** With “MGSDKIHHHHHHMKDMTNLDNFEVGFDIPAKPGMDAAEIQTPCLVLDLDALERNVKKMGDYAKAHGMRHRVHGKMHKSVDVAKLQERLGGAVGVCCQKVSEAEVFVRGGIKDVLVSNQVRDPLKIDRLAQLPKLGSRIIVCVDDLANVADLSAAALRHGTELEVLIEIDCGAGRCGVGTTQDVVAIARAVDAAENLKFTGIQAYQGAMQHLDKYEDRKAKLDIAIEMVESAVQGLKAVGLDPELVSGGGTGSYYFEANSGVYNELQCGSYAFMDADYGRILDQNGQRIDKGEWENAMFILTQVMSHAKADKAIVDAGLKAQSVDSGLPFVHGRDDVEYIKCSDEHGVVADPNGVLKVGDKLRLVPGHCDPTANVHDWYVGVRGGKVECVWPVSARGKAY” as the sequence, how does the “soluble on expression in E. coli” value read?
**A.** not soluble

**Q.** For “MGSDKIHHHHHHMKELAIASRDLVSPDGLAGYLRFVNAQPLLRPEEERDLARRLRDHGDVDAAKDLVLSHLRFVVRVARGYRGYGLQEADLIQEGNIGLMKAVKRYDPDHGVRLVSFAVHWVKAEIHEFILRNWRIVKVATTKAQRKLFFNLRSSRSHTGWMSGEESAAMADDLGVTQAQVLEMEGRMSGYDYSLNLEPDEEREGGRAPDLADPTGSPIEQLVERDWDQQQHRALHTALSALPQRDRYIIENRWLSDDPKTLQVLGDELGVSAERVRQLEKSSMGKLRQQMLTTAAVA”, which “soluble on expression in E. coli” value is on record?
**A.** not soluble

**Q.** Which “soluble on expression in E. coli” value does the source give for “MGSDKIHHHHHHMKELENYYGRLFTKYQLTAKEREIAEKVPSITKKNNCFRCGTTFKEENKLPNDAYYCRACLLLGRVRSDEKLYHFPQKDFPITKCLKWKGQLTDWQQRISDGLVANVENNRATLVHAVTGAGKTEMIYHTVASVIDKGGAVCLASPRIDVCIELYKRLQNDFSVPISLLHGESEPYFRTPLVVATTHQLLKFYQAFDLVLIDEVDAFPYADNPMLYQAADNAVKEAGVQVFLTATSTDELDKKVRTGKLSRLSLPRRFHGNPLVVPQKVWFSKFDDTLKKNRLVPKLKKAIEEQRKSGFPLLIFVPEISKGQEFTKIMKKTFPEETIGFVSSQTENRLEIVEGFRKREITVLISTTILERGVTFPCVDVFVVQANHYLYTASSLVQIAGRVGRSIERPTGLLQFYHEGSTGAIEKAIAEIKQMNKEAGYV” here?
**A.** not soluble

**Q.** For “MGSDKIHHHHHHMKGLDYCRQKAEESRSSFLSGFRFLTQEKQDAVTVLYAFCRELDDVVDECSNPDVAQATLNWWRGDLDNAFGGAMPEHPVNQALRQVKETFKLPKYELEALIDGMQMDLVQARYGSFEELKLYCRRVAGVVGCLIARILGFSDGKTLEYADKMGLALQLTNIIRDVGEDARRGRIYLPMEEMQRFDVPASVILQCSPTGNFAELMAFQIKRARETYREAVSLLPDADKKAQKVGLVMAAVYYALLNEIDRDGAQNVLKYKIALPSPRKKRIALKTWLFGFKPRPGTPERA”, which “soluble on expression in E. coli” value is on record?
**A.** not soluble

**Q.** Which “soluble on expression in E. coli” value does the source give for “MGSDKIHHHHHHMKGQSKKALTKKRIEEAALSLFREQGYDSTTVQEITAKAQVAKGTFFNYFPTKESIMRSLAEDRLHSVSVYMEQRHIQSLPILKKIRTYLSYLLEEYDSHPKLTVQIWRHVVEFEEMILSHWVVLLEEAKERGELSEDFPIHVWSHIIHSHVCYGLQMSHLAPTKAQLLAKVMPLLEESLSAIIQKRGNSAMKKLVVLGGGYGGMRILQRLLPNDLPSDWEITLVDRLPYHCLKTEYYALAAGTASDHHLRVSFPEDPRLSTRYGSVSSIDLASKTVLFEEGEPLTYDTLIIGLGCEDKYHGVPGAKEHTYSIQSMEATRRTYEALNNVRPEGVVTIVGAGLSGVELASELRESRPDLTIKLLDRGDIILSMFPRRLSNYVQNWFIDHGVDIINKSNVTKVEEGAVYNHDERIESDAIIWTAGIQPNVVVRNLDVEKDQQGRVVLTPHHHLPTDEDVFVVGDCASLPHAPSAQLAEGQAEQIVTVLKKRWNNESLPDEFPRIKLKGVLGSLGKKHGFGLMGERTLIGRVPRVLKSGVLWMYKYHSG” here?
**A.** not soluble

**Q.** Which “soluble on expression in E. coli” value does the source give for “MGSDKIHHHHHHMKIAIEAQRIFRKEKHGMDYVALETIRELQKIDQQNEYFILVSPGDDVCLQESANMHIVTVNWPSYPLWEQIGLPLALKKIKPDLLHCTSNTAPVHGNIPLVLTLHDIIFLEKKQGKNQSMYQRLGRFYRKIIVPQILTKCKRIITVSHFECNRISHFLHIDKQLLVAVYNGYSQHFIPIRNAQAITARYIKNHPYLFFLGNTDPKKNTARVLQAYGIYLKKSSQPLPLLIADLKEEIIDEYLNREGLQEIKKMLYHPGYIPNTELPAVYSGASVFIYTSLRESFGIPILEAMACGTPVITSTTSAMPEIAGPEGILVNPFEPEEIASALLHLEENAEFYQSQTAYGLERVRRFSWENTAREILNIYKEILA” here?
**A.** not soluble

**Q.** With “MGSDKIHHHHHHMKIAQIAPLTESVPPKLYGGTERVVSYITEALVDLGHDVTLFASGDSVTNAKLEAVWPRALRLDPGIRDRVAPHMLLMELVRRQAENFDVLHFHLDYYSFSVFKRQETPFVTTMHGRLDLPEQQPVFDTFNTAPVISISNAQRHPLPQARWLTTVYHGLPEQLYTPQPVEQKYLAFLGRISPEKRVDTAIRIAGRCGMPIRIAAKVDAADREYFERDIRPLLDLPYVEFIGEIADHQKAEFLSGAHALLFPIDWPEPFGLVMIEAMACGTPVIAFNRGSVPEVLEDGVTGFIVEDEIGAVAAVNRLHKMPRAGVRQRFEERFTSHRMAQQYVNAYQSVIRAQKRSRFKVIDTSGS” as the sequence, how does the “soluble on expression in E. coli” value read?
**A.** not soluble

**Q.** For “MGSDKIHHHHHHMKIAVLSGKGGTGKTLVAVNLAAAAQRSTYIDCDVEEPNGHLFFKPEILQEEEITVKIPRVEDTLCQGCRRCVDFCQFNALAYIKEKLLVFEDVCHSCGGCILLCPEKALTEQEKGIGKVQKGLSDQVRVYTGVLNIGEVSGVPIIKKLLNENKSDKNEPESDQLTFIDCPPGSACSVMESIKDADYCLLVAEPTLFGVHNLNMVHELVKIFNKPCGVVLNKSLEGENPAETFCLEKNIKILSRLPFDHELGRLNSNAEIAVRKSEPYKALFSALLETVTKEVQHETAAYS”, which “soluble on expression in E. coli” value is on record?
**A.** not soluble

**Q.** Which “soluble on expression in E. coli” value does the source give for “MGSDKIHHHHHHMKIAYYLPSLQAPGGIERIVTFKANYFAEHFEGYDITIITSEQMGKAPHFPLSPKVKHIDLGVSFDLPYSQSIVSKVLKYPFRYYRFKQRLSNLLNELKPDITISTMRRELNFITKLKDGSLKIGEFHVSRYAYGAEALKRKSPIVNMIKKRWANRFVKNLSKLSRVIILTSEGAKDWPELTNISIIPNPISTPVEGKQTDILSHNAIAVGRYAPQKGFDMLIPAWSIVAQRHPDWKLHIYGEGDLKEKFTKLIDELQLNNNCLLHHTVSNIAEKYCMSSIFVLSSRYEGFGLVLAEAMSCGIPCVSFDCPHGPSNIIKDHEDGLLVEKENIKELADKICYLIENENVRIKMGHKARENVKRFLPENVMPQWKNLFESLTYSSK” here?
**A.** not soluble
